From paper PMC9352680, “A comprehensive thermodynamic model for RNA binding by the Saccharomyces cerevisiae Pumilio protein PUF4”
Residue numbers refer to the chain shown, from its start. Names and notes keep the numbering of the source.

B1: Id_ii_S2_P4E.2_K4.1_C4.2_H4.1_A4.1_F4.1_T4.2_[G10C] (ssRNA)
RNA: UUUGAUUAAUAUGAUAUCGUUCUUUCUCUUGUAUAUUACUUUCUUUCUCGAUAUCAUAUUAAUCUUU
B2: Id_ii_S2_P4E.2_K4.1_C4.2_[C-2A]_[T-1C]_H4.1_A4.1_F4.1_T4.2_[G10T]_[T11C] (ssRNA)
RNA: B1 RNA with C28A, U29C, C39U, U40C
B3: Id_ii_S2_P4E.2_K4.1_C4.2_[T-1A]_H4.1_A4.1_F4.1_T4.2 (ssRNA)
RNA: B1 RNA with U29A, C39G
B4: Id_ii_S2_P4E.3_K4.2_C4.2_[C-2G]_[T-1G]_H4.2_A4.1_F4.1_T4.2_[G10A] (ssRNA)
RNA: B1 RNA with C28G, U29G, G31A, C39A
B5: Id_ii_S2_P4E.2_K4.1_C4.2_H4.1_A4.1_F4.1_T4.2_[T11C] (ssRNA)
RNA: B1 RNA with C39G, U40C
B6: Id_ii_S2_P4E.2_K4.1_C4.2_[C-2A]_[T-1C]_H4.1_A4.1_F4.1_T4.2_[G10C] (ssRNA)
RNA: B1 RNA with C28A, U29C
B7: Id_ii_S2_P4E.2_K4.1_C4.2_[T-1C]_H4.1_A4.1_F4.1_T4.2_[G10T] (ssRNA)
RNA: B1 RNA with U29C, C39U
B8: Id_ii_S2_P4E.2_K4.1_C4.2_[T-1C]_H4.1_A4.1_F4.1_T4.2_[G10A]_[T11A] (ssRNA)
RNA: B1 RNA with U29C, C39A, U40A
B9: Id_ii_S2_P4E.2_K4.1_C4.2_[C-2A]_[T-1C]_H4.1_A4.1_F4.1_T4.2_[G10T] (ssRNA)
RNA: B1 RNA with C28A, U29C, C39U
B10: Id_ii_S2_P4E.2_K4.1_C4.2_[T-1C]_H4.1_A4.1_F4.1_T4.2 (ssRNA)
RNA: B1 RNA with U29C, C39G
B11: Id_ii_S2_P4E.2_K4.1_C4.2_H4.1_A4.1_F4.1_T4.2_[G10A]_[T11C] (ssRNA)
RNA: B1 RNA with C39A, U40C
B12: Id_ii_S2_P4E.2_K4.1_C4.2_[T-1G]_H4.1_A4.1_F4.1_T4.2_[G10T]_[T11C] (ssRNA)
RNA: B1 RNA with U29G, C39U, U40C
B13: Id_ii_S2_P4E.2_K4.1_C4.2_[C-2A]_[T-1C]_H4.1_A4.1_F4.1_T4.2_[G10A] (ssRNA)
RNA: B1 RNA with C28A, U29C, C39A
B14: Id_ii_S2_P4E.2_K4.1_C4.2_[C-2A]_[T-1C]_H4.1_A4.1_F4.1_T4.2_[G10A]_[T11C] (ssRNA)
RNA: B1 RNA with C28A, U29C, C39A, U40C
B15: Id_ii_S2_P4E.2_K4.1_C4.2_[T-1A]_H4.1_A4.1_F4.1_T4.2_[G10A] (ssRNA)
RNA: B1 RNA with U29A, C39A
B16: Id_ii_S2_P4E.2_K4.1_C4.2_[C-2A]_[T-1G]_H4.1_A4.1_F4.1_T4.2_[G10T]_[T11C] (ssRNA)
RNA: B1 RNA with C28A, U29G, C39U, U40C
B17: Id_ii_S2_P4E.2_K4.1_C4.2_[C-2A]_[T-1A]_H4.1_A4.1_F4.1_T4.2_[G10A]_[T11A] (ssRNA)
RNA: B1 RNA with C28A, U29A, C39A, U40A
B18: Id_ii_S2_P4E.2_K4.1_C4.2_[T-1A]_H4.1_A4.1_F4.1_T4.2_[G10A]_[T11A] (ssRNA)
RNA: B1 RNA with U29A, C39A, U40A
B19: Id_ii_S2_P4E.2_K4.1_C4.2_[C-2A]_H4.1_A4.1_F4.1_T4.2_[G10A]_[T11A] (ssRNA)
RNA: B1 RNA with C28A, C39A, U40A
B20: Id_ii_S2_P4E.2_K4.1_C4.2_[C-2A]_H4.1_A4.1_F4.1_T4.2_[G10T]_[T11G] (ssRNA)
RNA: B1 RNA with C28A, C39U, U40G
B21: Id_ii_S2_P4E.2_K4.1_C4.2_[T-1A]_H4.1_A4.1_F4.1_T4.2_[G10C] (ssRNA)
RNA: B1 RNA with U29A
B22: Id_ii_S2_P4E.2_K4.1_C4.2_H4.1_A4.1_F4.1_T4.2_[G10A]_[T11A] (ssRNA)
RNA: B1 RNA with C39A, U40A
B23: Id_ii_S2_P4E.2_K4.1_C4.2_[T-1C]_H4.1_A4.1_F4.1_T4.2_[G10C] (ssRNA)
RNA: B1 RNA with U29C
B24: Id_ii_S2_P4E.2_K4.1_C4.2_[T-1G]_H4.1_A4.1_F4.1_T4.2_[G10A]_[T11A] (ssRNA)
RNA: B1 RNA with U29G, C39A, U40A
B25: Id_ii_S2_P4E.2_K4.1_C4.2_[T-1G]_H4.1_A4.1_F4.1_T4.2_[G10A]_[T11G] (ssRNA)
RNA: B1 RNA with U29G, C39A, U40G
B26: Id_ii_S2_P4E.2_K4.1_C4.2_[C-2A]_[T-1G]_H4.1_A4.1_F4.1_T4.2_[G10A] (ssRNA)
RNA: B1 RNA with C28A, U29G, C39A
B27: Id_ii_S2_P4E.2_K4.1_C4.2_[C-2A]_H4.1_A4.1_F4.1_T4.2_[G10C] (ssRNA)
RNA: B1 RNA with C28A
B28: Id_ii_S2_P4E.3_K4.2_C4.2_[C-2G]_[T-1C]_H4.2_A4.1_F4.1_T4.2_[G10C]_[T11A] (ssRNA)
RNA: B1 RNA with C28G, U29C, G31A, U40A

Each binder was assayed against T1, PUF4 RNA-binding domain (Saccharomyces cerevisiae, UniProt P25339 537-888) (assay: Mg; RNA-MaP; 20 mM Na-HEPES pH 7.4, 30 mM KOAc, 0.75 mM MgCl2, 0.1% Tween-20, 5% glycerol, 0.1 mg/mL BSA, 2 mM DTT; 25 C; 0.0125-409.6 nM protein). Conditions: tags: N-His6-TEV cleaved; C-SNAP kept, Cy3B-labelled; label: tethered on chip by stalled RNA polymerase.
T1 sequence: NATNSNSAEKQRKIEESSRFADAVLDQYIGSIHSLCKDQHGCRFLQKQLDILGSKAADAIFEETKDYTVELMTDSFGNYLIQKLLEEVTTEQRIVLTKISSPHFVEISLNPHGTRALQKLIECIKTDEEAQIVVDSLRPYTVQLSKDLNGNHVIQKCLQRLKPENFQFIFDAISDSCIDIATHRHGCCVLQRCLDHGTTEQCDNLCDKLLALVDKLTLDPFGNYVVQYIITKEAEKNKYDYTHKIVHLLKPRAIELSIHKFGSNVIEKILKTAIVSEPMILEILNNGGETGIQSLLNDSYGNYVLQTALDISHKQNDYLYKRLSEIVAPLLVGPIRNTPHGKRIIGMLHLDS
B1 showed a Kd of 0.572 nM.
B2 gave a Kd of 0.33 nM.
For B3, the Kd was 0.425 nM.
Work on B4 yielded a Kd of 57 nM.
B5 gave a Kd of 0.275 nM.
B6 gave a Kd of 1.25 nM.
In the case of B7, the Kd is reported as 0.15 nM.
In the case of B8, the Kd is reported as 0.324 nM.
Work on B9 yielded a Kd of 0.296 nM.
B10 gave a Kd of 0.166 nM.
In the case of B11, the Kd is reported as 0.566 nM.
B12 gave a Kd of 0.286 nM.
In the case of B13, the Kd is reported as 0.442 nM.
For B14, the Kd was 0.678 nM.
B15 was tested, and the Kd was 0.506 nM.
B16 showed a Kd of 2.27 nM.
In the case of B17, the Kd is reported as 3.89 nM.
In the case of B18, the Kd is reported as 0.937 nM.
B19 was tested, and the Kd was 0.939 nM.
B20 showed a Kd of 0.705 nM.
B21 showed a Kd of 0.716 nM.
B22 showed a Kd of 0.537 nM.
For B23, the Kd was 0.482 nM.
B24 was tested, and the Kd was 0.489 nM.
In the case of B25, the Kd is reported as 1.7 nM.
In the case of B26, the Kd is reported as 0.973 nM.
B27 was tested, and the Kd was 1.11 nM.
With B28 the Kd was 56.6 nM.
Binder UCUCUUCGUAUUAUUCUCUCUU (ssRNA) [Ib_S1_P5E.1_K5.1_C5.1_H5.1_[T1C]_A5.1_F5.1_[A10C]_T5.1] has a Kd of over 2300 nM.
